Assay [1] deals with insulin. The experiment in a line: ligand dot blot (densitometric analysis of dots). Particulars: 2.5 μl (0.09 mg/ml) protein dotted on nitrocellulose; 1 μg/ml insulin, 4 °C overnight; parent: est. 0.12; read off a plot.
Assay [2] deals with insulin. The experiment in a line: pull-down (Ni-Sepharose 6 column, Western blot with anti-insulin antibody, densitometric analysis of bands). Conditions: 0.1 mg His6-tagged-IGFBP7 mixed with 0.5 mg insulin; parent: est. 0.20; read off a plot. Background: In western blotting, separated proteins are transferred to a membrane and probed.

The values below come from PMC4840315.

Regarding “wild-type IGFBP7 (insulin-like growth factor binding protein 7), His6-tagged (from UniProt Q16270) H200F”, in the assay with insulin [1], the response stood at 0.11 Gradation.

“wild-type IGFBP7 (insulin-like growth factor binding protein 7), His6-tagged (from UniProt Q16270) R198E”: in the assay with insulin [1], the response was found to be 0.53 Gradation.

For the substance “wild-type IGFBP7 (insulin-like growth factor binding protein 7), His6-tagged (from UniProt Q16270) R198I; H200F”, the response was 0.025 Gradation in the assay with insulin [1] and 0.1 Gradation with insulin [2].
